The text below walks through data of patent US6800738.

Assay [1] addresses T1, p185^HER2 ECD (secreted form of the extracellular domain of p185^HER2) (human, UniProt P04626 23-652).
T1 construct: extracellular domain; also called HER2 extracellular domain
As to the kind of experiment: solution equilibrium with p185HER2 ECD, free antibody by ELISA on immobilized ECD (Friguet method).

The target of assay [2] is T1, p185^HER2 ECD (secreted form of the …). As to the kind of experiment: ratio of Kd values, solution equilibrium/ELISA. In general terms: An ELISA detects its analyte on a solid surface through an enzyme-linked reagent.
The target in assay [3] is p185^HER2 on cells (SK-BR-3 human breast tumor cells; WI-38 cells) (human, UniProt P04626 23-1255). As to the kind of experiment: cell-based or functional assay.

B1: huMAb4D5-2 (antibody, name in Kabat numbering, V domains shown)
VH: EVQLVESGGGLVQPGGSLRLSCAASGFNIKDTYIHWVRQAPGKGLEWVARIYPTNGYTRYADSVKGRFTISADDSKNTLYLQMNSLRAEDTAVYYCARWGGDGFYAMDVWGQGTLVTVSS
VL: not shown
A word on the Kd: it is the concentration at which binding is half-saturated. Low readings indicate a tighter complex, high ones a looser complex. In turn, B1 returned a Kd in assay [1] of 4.7 nM. The “fold increase in affinity over huMAb4D5-1” value in assay [2] worked out at 5 fold. Also, the “Relative cell proliferation of SK-BR-3 cells, 96 hr, 8 ug/ml antibody” value in assay [3] was 101 % of untreated control.
